IntAct's records for PubMed 10713164

Molecular target: ncor2_human NCOR2 (UniProt Q9Y618)

Substance: Recombining binding protein suppressor of hairless (Homo sapiens), Q06330 E233A;E234A;F235A
- effect of a mutation on the interaction: decreasing interaction strength
